# Assay results taken from patent US20030124505.
# Target: RecA recombinase (UniProt P0A7G6)
# Conditions: second round manual capture from 1:10,000 pHPRT:pUC library; automated 59%; first round 2% and 1.35%
# RecA recombinase, sequence (P0A7G6 2-353): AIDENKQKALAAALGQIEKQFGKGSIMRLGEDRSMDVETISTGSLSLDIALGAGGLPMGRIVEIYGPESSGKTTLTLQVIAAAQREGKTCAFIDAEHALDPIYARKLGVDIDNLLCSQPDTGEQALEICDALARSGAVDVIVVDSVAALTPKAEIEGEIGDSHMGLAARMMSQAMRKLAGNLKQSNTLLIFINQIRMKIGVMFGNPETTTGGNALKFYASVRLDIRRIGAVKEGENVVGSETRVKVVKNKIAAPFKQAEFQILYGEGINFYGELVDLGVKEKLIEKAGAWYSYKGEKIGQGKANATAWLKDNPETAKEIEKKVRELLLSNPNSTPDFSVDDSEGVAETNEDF
substance,measurement,value
318 bp biotinylated HPRT cssDNA probe (primers hExo3-2A and h/m300B),activity (% pHPRT clones),76
